In article PMC11118710, “GLP-1 and Its Derived Peptides Mediate Pain Relief Through Direct TRPV1 Inhibition Without Affecting Thermoregulation” (Research Square, 2024):

Target: human transient receptor potential vanilloid 1 (TRPV1) (human) (UniProt Q8NER1)
Sequence (Q8NER1 whole entry): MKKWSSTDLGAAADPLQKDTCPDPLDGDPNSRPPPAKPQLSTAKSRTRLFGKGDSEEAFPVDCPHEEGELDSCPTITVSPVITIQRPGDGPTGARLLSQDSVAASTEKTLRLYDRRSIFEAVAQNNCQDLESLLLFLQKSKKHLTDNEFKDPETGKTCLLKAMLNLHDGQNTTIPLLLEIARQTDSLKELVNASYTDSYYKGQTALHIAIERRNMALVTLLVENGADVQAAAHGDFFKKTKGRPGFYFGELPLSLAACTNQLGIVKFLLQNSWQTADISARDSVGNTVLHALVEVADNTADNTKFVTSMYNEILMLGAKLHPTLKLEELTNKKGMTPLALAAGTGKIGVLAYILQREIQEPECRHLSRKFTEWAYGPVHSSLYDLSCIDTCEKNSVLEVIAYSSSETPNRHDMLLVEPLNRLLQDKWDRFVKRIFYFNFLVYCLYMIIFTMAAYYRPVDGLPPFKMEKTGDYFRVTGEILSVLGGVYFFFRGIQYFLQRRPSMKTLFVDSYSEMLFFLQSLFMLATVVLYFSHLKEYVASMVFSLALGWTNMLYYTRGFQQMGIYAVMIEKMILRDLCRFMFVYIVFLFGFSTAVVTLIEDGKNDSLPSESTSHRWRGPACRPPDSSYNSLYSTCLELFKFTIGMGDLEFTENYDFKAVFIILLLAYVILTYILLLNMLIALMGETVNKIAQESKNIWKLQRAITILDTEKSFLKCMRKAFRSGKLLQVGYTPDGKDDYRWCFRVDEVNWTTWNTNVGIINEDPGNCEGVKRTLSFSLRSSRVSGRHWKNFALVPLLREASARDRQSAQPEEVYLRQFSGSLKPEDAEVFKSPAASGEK

Q: With “exendin-4 (from UniProt P26349 48-87) (peptide)” as the substance, how does the IC50 of inhibition of the CAP (100 nM)-induced calcium response in CHO K1 cells expressing human TRPV1 read?
A: 62.2 nM
